Among the targets are CRKL SH2 domain (human) (UniProt P46109); SRC SH2 domain (human) (UniProt P12931); CRK SH2 domain (human) (UniProt P46108); BLK SH2 domain (human) (UniProt P51451); ABL1 SH2 domain (human) (UniProt P00519); ABL2 SH2 domain (human) (UniProt P42684); GRB10 SH2 domain (human) (UniProt Q13322); HCK SH2 domain (human) (UniProt P08631); YES1 SH2 domain (human) (UniProt P07947); BMX SH2 domain (human) (UniProt P51813); NCK2 SH2 domain (human) (UniProt O43639); HSH2D SH2 domain (human) (UniProt Q96JZ2); TNS4 SH2 domain (human) (UniProt Q8IZW8); BLNK SH2 domain (human) (UniProt Q8WV28); SHF SH2 domain (human) (UniProt Q7M4L6).

Holding throughout (assay): peptide or protein array; SH2/PTB proteins spotted on aldehyde slides, rhodamine peptide titrated in buffer B (20 mM HEPES, 100 mM KCl, 0.1% Tween-20, 5 mM DTT, pH 7.8), 1 h at room temperature; replicate assays
In assay [1] the target is PIK3R3 tandem SH2 domains (human).
Assay [2] addresses SYK N-terminal SH2 domain (human).
The target in assay [3] is SH2D1A SH2 domain (human) (UniProt O60880).
Assay [4] addresses SH2D3A SH2 domain (human) (UniProt Q9BRG2).
In assay [5] the target is ZAP70 C-terminal SH2 domain (human) (UniProt P43403).
The target of assay [6] is SH3BP2 SH2 domain (human) (UniProt P78314).
In assay [7] the target is PIK3R2 tandem SH2 domains (human) (UniProt O00459).
Assay [8] concerns the target PLCG2 tandem SH2 domains (human).
The target in assay [9] is SYK tandem SH2 domains (human).

pKd: −log10 of the molar value. Several values for one entry are separate records, joined by “and”; a condition that tells them apart may be missing. Equal values may be shown once.

BLK SH2 domain (human), sequence (P51451 124-220): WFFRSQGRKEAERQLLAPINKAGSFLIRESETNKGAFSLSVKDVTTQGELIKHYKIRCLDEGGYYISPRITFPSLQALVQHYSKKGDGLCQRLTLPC
SH3BP2 SH2 domain (human), sequence (P78314 457-555): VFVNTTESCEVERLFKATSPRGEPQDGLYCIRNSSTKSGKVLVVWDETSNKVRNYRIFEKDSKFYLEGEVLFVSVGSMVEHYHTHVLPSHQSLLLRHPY
ABL2 SH2 domain (human), sequence (P42684 173-263): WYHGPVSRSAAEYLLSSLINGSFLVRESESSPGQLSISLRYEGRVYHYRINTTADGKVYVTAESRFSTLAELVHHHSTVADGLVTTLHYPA
YES1 SH2 domain (human), sequence (P07947 158-255): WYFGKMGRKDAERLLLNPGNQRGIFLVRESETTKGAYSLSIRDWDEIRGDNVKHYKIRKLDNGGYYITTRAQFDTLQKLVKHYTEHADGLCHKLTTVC
CRK SH2 domain (human), sequence (P46108 13-118): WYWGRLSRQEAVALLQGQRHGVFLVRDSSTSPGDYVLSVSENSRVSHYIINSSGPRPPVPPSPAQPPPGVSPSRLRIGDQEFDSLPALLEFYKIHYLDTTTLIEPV
PIK3R2 tandem SH2 domains (human), sequence (O00459 whole entry, the tested form may be a part): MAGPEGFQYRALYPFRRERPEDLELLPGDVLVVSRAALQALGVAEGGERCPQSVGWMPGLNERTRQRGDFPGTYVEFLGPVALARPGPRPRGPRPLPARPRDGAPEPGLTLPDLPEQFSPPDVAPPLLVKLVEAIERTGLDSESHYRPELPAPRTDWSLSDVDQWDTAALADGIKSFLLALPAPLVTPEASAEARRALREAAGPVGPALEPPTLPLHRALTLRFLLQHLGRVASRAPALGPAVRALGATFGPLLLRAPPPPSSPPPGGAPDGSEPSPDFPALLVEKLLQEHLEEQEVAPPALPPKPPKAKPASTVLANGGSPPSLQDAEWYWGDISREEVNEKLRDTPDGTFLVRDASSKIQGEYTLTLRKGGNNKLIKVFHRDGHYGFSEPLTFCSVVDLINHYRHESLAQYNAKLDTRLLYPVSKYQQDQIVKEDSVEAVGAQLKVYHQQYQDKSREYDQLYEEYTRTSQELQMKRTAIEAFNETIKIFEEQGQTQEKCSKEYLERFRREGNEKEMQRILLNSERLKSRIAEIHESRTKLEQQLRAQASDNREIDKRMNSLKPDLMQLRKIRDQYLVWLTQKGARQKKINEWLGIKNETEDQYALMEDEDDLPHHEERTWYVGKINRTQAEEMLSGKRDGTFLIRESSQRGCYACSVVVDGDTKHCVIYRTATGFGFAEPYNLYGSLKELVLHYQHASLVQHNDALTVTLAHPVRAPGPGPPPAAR
BMX SH2 domain (human), sequence (P51813 296-392): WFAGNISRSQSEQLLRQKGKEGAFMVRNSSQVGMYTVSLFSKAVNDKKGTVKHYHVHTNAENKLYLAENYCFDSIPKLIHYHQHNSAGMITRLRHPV
CRKL SH2 domain (human), sequence (P46109 14-102): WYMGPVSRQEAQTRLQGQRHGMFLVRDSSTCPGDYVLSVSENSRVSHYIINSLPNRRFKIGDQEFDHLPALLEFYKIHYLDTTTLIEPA
SHF SH2 domain (human), sequence (Q7M4L6 323-418): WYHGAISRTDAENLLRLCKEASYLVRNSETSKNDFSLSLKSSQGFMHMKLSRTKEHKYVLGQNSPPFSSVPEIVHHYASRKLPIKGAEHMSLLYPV
ZAP70 C-terminal SH2 domain (human), sequence (P43403 whole entry, the tested form may be a part): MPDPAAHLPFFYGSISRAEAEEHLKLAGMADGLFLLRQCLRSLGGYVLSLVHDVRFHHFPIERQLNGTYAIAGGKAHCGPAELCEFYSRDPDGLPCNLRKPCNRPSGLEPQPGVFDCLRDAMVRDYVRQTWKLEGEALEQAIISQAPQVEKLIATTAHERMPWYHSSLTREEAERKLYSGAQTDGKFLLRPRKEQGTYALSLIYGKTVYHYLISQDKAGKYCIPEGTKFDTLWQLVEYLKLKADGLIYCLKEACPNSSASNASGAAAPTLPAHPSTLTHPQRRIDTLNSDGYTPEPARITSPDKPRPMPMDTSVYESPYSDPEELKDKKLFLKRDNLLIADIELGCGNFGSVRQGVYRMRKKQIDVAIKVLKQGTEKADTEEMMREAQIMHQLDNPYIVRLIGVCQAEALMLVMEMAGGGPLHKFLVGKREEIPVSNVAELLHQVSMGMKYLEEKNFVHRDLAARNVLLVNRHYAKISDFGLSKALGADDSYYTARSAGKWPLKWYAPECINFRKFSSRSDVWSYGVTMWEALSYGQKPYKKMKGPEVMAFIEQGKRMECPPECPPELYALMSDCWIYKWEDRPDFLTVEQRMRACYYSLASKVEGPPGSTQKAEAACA
BLNK SH2 domain (human), sequence (Q8WV28 346-453): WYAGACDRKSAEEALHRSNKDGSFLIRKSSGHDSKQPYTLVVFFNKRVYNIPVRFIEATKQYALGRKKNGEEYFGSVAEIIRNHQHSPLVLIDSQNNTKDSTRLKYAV
SH2D3A SH2 domain (human), sequence (Q9BRG2 15-114): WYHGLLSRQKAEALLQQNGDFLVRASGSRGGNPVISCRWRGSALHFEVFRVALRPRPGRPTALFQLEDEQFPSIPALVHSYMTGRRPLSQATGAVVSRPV
GRB10 SH2 domain (human), sequence (Q13322 493-574): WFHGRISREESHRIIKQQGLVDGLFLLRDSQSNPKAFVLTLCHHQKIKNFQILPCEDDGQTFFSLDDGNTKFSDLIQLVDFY
HCK SH2 domain (human), sequence (P08631 144-241): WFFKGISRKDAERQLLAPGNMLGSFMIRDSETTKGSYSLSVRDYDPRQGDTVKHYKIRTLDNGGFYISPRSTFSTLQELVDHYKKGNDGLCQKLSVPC
NCK2 SH2 domain (human), sequence (O43639 285-380): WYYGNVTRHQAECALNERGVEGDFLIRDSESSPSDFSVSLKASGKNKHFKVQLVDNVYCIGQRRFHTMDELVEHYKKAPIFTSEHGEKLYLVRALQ
ABL1 SH2 domain (human), sequence (P00519 127-217): as the sequence (P42684 173-263) above, with S9N, L18G, L35R, T53A, A54S, V58L, T61S, A62S, S67N, V84I counted along it
HSH2D SH2 domain (human), sequence (Q96JZ2 34-125): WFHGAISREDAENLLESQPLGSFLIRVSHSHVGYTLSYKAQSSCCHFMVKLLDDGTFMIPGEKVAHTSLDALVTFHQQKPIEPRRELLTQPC
SH2D1A SH2 domain (human), sequence (O60880 6-104): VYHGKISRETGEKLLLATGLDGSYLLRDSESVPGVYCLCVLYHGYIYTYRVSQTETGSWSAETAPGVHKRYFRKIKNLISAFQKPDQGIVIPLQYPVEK

As a reminder, the pKd is the Kd on a negative log10 scale, so that one unit is a factor of ten. A higher pKd goes with a small Kd. For “ErbB4 pY1221 phosphopeptide (18-mer), rhodamine-labelled, for protein microarrays”, the negative logarithm of the Kd (pKd) in assay [1] was 6.26; with CRKL SH2 domain (human), 6.97; in [2], 4.81 and 5.02; in assay [3] it was 6.12; in assay [4], 6.22; in the assay with SRC SH2 domain (human) it was 6.35. Further, the negative-log Kd (pKd) with CRK SH2 domain (human) was 4.19; with BLK SH2 domain (human), 5.94 and 6.23; in [5], 6.10; in assay [6] it was 5.63 and 4.96 and 5.91; in assay [7], 5.87; in the assay with ABL1 SH2 domain (human), 6.60. In addition, the negative-log Kd (pKd) in the assay with ABL2 SH2 domain (human) is 6.04 and 6.55; in the assay with GRB10 SH2 domain (human), 6.63; in the assay with HCK SH2 domain (human) it was 7.15; in assay [8], 5.90 and 5.86; with YES1 SH2 domain (human), 5.88 and 6.09; with BMX SH2 domain (human), 6.38. Also, the pKd in assay [9] was 6.09 and 5.89 and 6.55; with NCK2 SH2 domain (human), 6.68; with HSH2D SH2 domain (human), 6.00; with TNS4 SH2 domain (human), 6.49; with BLNK SH2 domain (human), 5.40; with SHF SH2 domain (human), 5.92.
